Consider 28 sequences from the supplement of paper PMC9170038.

In the series the test system is MS2 coat protein. Kind of series: apparent KD of MS2 coat protein; designed switch direction (-1 OFF switch, 1 ON switch): 1; higher = weaker reporter binding. Summed up: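 Normalised cluster fluorescence was curve-fitted, and each design's median over clusters is its apparent KD. Before this, SNAP-549-labelled MS2 coat protein was titrated from 0.7 or 1.5 nM, doubling to 3 µM, over RNA switches transcribed on Illumina chips by stalled E. coli RNA polymerase. Titrations had no input, 200 uM small-molecule ligand, or an oligonucleotide input, and steps lasted 0.8–1.5 h (lowest) to 10–20 min (highest).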

Setting [1] is: input ligand: microRNA oligo, concentration not stated.
Where [2] appears, read: Eterna round: R95, input ligand: FMN 200 uM.
The mark [3] stands for this setting: Eterna round: R95, input ligand: microRNA oligo, concentration not stated.
Where [4] appears, read: Eterna round: R95, input ligand: none.

With “GGAAGGAGGUCAGGAUAUGAAUGGAAAGUACAUGAGGAUCACCCAUGUUAUGGAGGAAGGAAACGUUAGAAGGGAUAAGGAAGG [AK SSNG2-V2-2] (Eterna round: R96, puzzle: Same State NG 2)”, the “apparent KD of MS2 coat protein” value worked out at 32 nM (input ligand: FMN 200 uM), 26.8 nM under setting [1] and 41.5 nM (input ligand: none).
Consider “GGAAUAUGAUGUUACAUGAGGAUCACCCAUGUAGUGAUAACUAAGGAUAUCUGUUAAGAUAAUUAAGAGAAGGUAGGAUCAUAA [AK SSNG3-V2-8.2] (Eterna round: R96, puzzle: Same State NG 3)”, for which the “apparent KD of MS2 coat protein” value worked out at 34.7 nM (input ligand: FMN 200 uM), 37.5 nM under setting [1] and 42.4 nM (input ligand: none).
Turning to “GGAAUAUUUACAGGAUAUGAUUUGUUAAGUCGAUCAGAAGGGUGGAUGUCUUACACGGUUUGUUACAUGAGGAUCACCCAUGUC [SameState NG1 #14] (Eterna round: R96, puzzle: Same State NG 1)”, the “apparent KD of MS2 coat protein” value runs as follows: (input ligand: FMN 200 uM) 73.3 nM; under setting [1], 74 nM; (input ligand: none) 176 nM.
Consider “GGAAUAUUUACAGGAUAUGUUUUGUUAAGUCGAGCAGAAGGGUAGAUGUCUUACACGGUUUGUUACAUGAGGAUCACCCAUGUU [SameState NG1 #17] (Eterna round: R96, puzzle: Same State NG 1)”, for which the “apparent KD of MS2 coat protein” value under setting [1] was 86.6 nM.
For “GGACGAGACGCAGGAUAUGCGAAGAAGAAGGAAGCAGAAGGGCGUGUGGGACGACAUGAGGAUCACCCAUGUUCUCUGCGAGGA [ssng1 b] (Eterna round: R96, puzzle: Same State NG 1)”, the “apparent KD of MS2 coat protein” value (input ligand: FMN 200 uM) was 363 nM, the “apparent KD of MS2 coat protein” value under setting [1] was determined as 116 nM and the “apparent KD of MS2 coat protein” value (input ligand: none) was determined as 331 nM.
In the same order, the values of “GGACGGUUAUCAGGAUAUGCGCUGAGCAUCACGGCUACAUGAGGAUCACCCAUGUCUAGCUUCUCGCAGAAGGGAUAGCCUCCU [Eternabot solution 36] (Eterna round: R96, puzzle: Same State NG 2)” are 11.2 nM, 10.1 nM and 15 nM.
As to “GGACGUCACUCAAACAAUUAAACAUGAGGAUCACCCAUGUCACAGGAUAUGGAUCCUAAUUGGAUCCAGAAGGGUGAGACGUCC [Fiskers NG3ss - 41] (Eterna round: R96, puzzle: Same State NG 3)”, under setting [1], the “apparent KD of MS2 coat protein” value was 193 nM.
For “GGAGAGAAGUGAGGAUAUGCAUGGAAGACACAUGAGGAUCACCCAUGUGGGAGGGAAACCGGGAGGUAGAAGGCACUGGGAAGA [AK SSNG2-V2-25] (Eterna round: R96, puzzle: Same State NG 2)”, the “apparent KD of MS2 coat protein” value is, setting by setting: (input ligand: FMN 200 uM) 83.7 nM; under setting [1], 24.1 nM; (input ligand: none) 107 nM.
As to “GGAGAGAGAGCACAGGAUAUGAGAGGAGAGACAUGAGGAUCACCCAUGUAAGAGAGAGAGGAGAGUUAGAAGGGUGAGAGAGAGG [Altered State 2-20 - Jieux - Same State 2] (puzzle: Same State 2)”, the “apparent KD of MS2 coat protein” value was 54.7 nM under setting [2], 43 nM under setting [3] and 102 nM under setting [4].
With “GGAGCAGGGUGAGGAUAUGUAAAAUUCGAAAGGACAGAAGGCACUUAACCAACAUGAGGAUCACCCAUGUAGGCGACGGCACCA [Eternabot solution 8] (Eterna round: R96, puzzle: Same State NG 1)”, the “apparent KD of MS2 coat protein” value under setting [1] came to 19.9 nM.
Turning to “GGAGCCAGCACCGAGGAUAUUCAUAUUAAAACAUGAGGAUCACCCAUGUAGGCCAGAAGGCCUUGGGAGAAGGCGGAUUGGCUCG [Xeonanis - 10] (puzzle: Same State 2)”, the “apparent KD of MS2 coat protein” value runs as follows: under setting [2], 35.3 nM; under setting [3], 327 nM; under setting [4], 496 nM.
On to “GGAGCCGACACUGAGGAUAUUCAUAUUAAAACAUGAGGAUCACCCAUGUAGGCCAGAAGGCCUUGGGAGAAGGCAGGCCGGCUCG [Inxebi] (Eterna round: R96, puzzle: Same State 2)”, for which the “apparent KD of MS2 coat protein” value by setting is: (input ligand: FMN 200 uM) 21.9 nM; under setting [1], 166 nM; (input ligand: none) 287 nM.
Consider “GGAGCCGACACUGAGGAUAUUCAUAUUAAAACAUGAGGAUCACCCAUGUAGGCCAGAAGGCCUUGGGAGAAGGCAGGUCGGCCCG [Bibimoar - 2] (puzzle: Same State 2)”, for which the “apparent KD of MS2 coat protein” value by setting is: under setting [2], 15.9 nM; under setting [3], 331 nM; under setting [4], 294 nM.
On to “GGAGCCGGCACCGAGGAUAUUCAUAUUAAAACAUGAGGAUCACCCAUGUAGCUCGAAAGAGCUUGGGAGAAGGCGGAUCGGCUCG [Xeonanis - 29] (Eterna round: R96, puzzle: Same State 2)”, for which the “apparent KD of MS2 coat protein” value by setting is: (input ligand: FMN 200 uM) 37.3 nM; under setting [1], 322 nM; (input ligand: none) 633 nM.
As for “GGAGCCGGCACCGAGGAUAUUCAUAUUAAAACAUGAGGAUCACCCAUGUAGCUCGAAAGAGCUUGGGAGAAGGCGGAUCGGCUCG [Xeonanis - 29] (puzzle: Same State 2)”, the “apparent KD of MS2 coat protein” value turned out to be 30.5 nM under setting [2], 1010 nM under setting [3] and 827 nM under setting [4].
As to “GGAGCCGGCCUAGGAUAUUUCAUAAGAAAACAUGAGGAUCACCCAUGUAGGCCAGAAGGCCUUGGGAAGAAGGAGGUCGGCUCC [Loop Effect - G26] (Eterna round: R96, puzzle: Same State NG 2)”, the “apparent KD of MS2 coat protein” value runs as follows: (input ligand: FMN 200 uM) 11.2 nM; under setting [1], 19.7 nM; (input ligand: none) 35.1 nM.
Consider “GGAGCCGGCCUAGGAUAUUUCAUAAUAUUACAUGAGGAUCACCCAUGUAGGCCAGAAGGCCUUGGGAAGAAGGAGGUCGGCUCC [Loop Effect - U26,U28,U29] (Eterna round: R96, puzzle: Same State NG 2)”, for which the “apparent KD of MS2 coat protein” value under setting [1] came out at 30.7 nM.
With “GGAGCCGGCCUAGGAUAUUUCAUUUAAAAACAUGAGGAUCACCCAUGUAGGCCAGAAGGCCUUGGGAAGAAGGAGGUCGGCUCC [Loop Effect - U24,U25] (Eterna round: R96, puzzle: Same State NG 2)”, the “apparent KD of MS2 coat protein” value (input ligand: FMN 200 uM) is 11.2 nM, the “apparent KD of MS2 coat protein” value under setting [1] stood at 22.7 nM and the “apparent KD of MS2 coat protein” value (input ligand: none) is 44.2 nM.
As for “GGAGCCGGUACUGAGGAUAUUCAUAUUAAAACAUGAGGAUCACCCAUGUAGGCCAGAAGGCCUUGGGAGAAGGCAGACCAGCUCG [Atgexeedri] (Eterna round: R96, puzzle: Same State 2)”, the “apparent KD of MS2 coat protein” value is, setting by setting: (input ligand: FMN 200 uM) 18 nM; under setting [1], 190 nM; (input ligand: none) 271 nM.
Regarding “GGAGCCUGCACUGAGGAUAUUCAUAGUGUAACAUGAGGAUCACCCAUGUAGGCCCUGAGGCCUUGGGAGAAGGCAGUGCGGCUCG [JL-ss2-3.05 ViennaUCT mod] (puzzle: Same State 2)”, the “apparent KD of MS2 coat protein” value is, setting by setting: under setting [2], 27.9 nM; under setting [3], 355 nM; under setting [4], 447 nM.
Consider “GGAGGACAUGAGGAUCACCCAUGUAGAUGGGCGCUAGGAUAUGCGAGAGGGUAGAGAGAAGCAGAAGGAGUGGAAA [JR_SS1_Sub040] (puzzle: Same State 1)”, for which the “apparent KD of MS2 coat protein” value is 149 nM under setting [2], 197 nM under setting [3] and 382 nM under setting [4].
Consider “GGAGGACAUGAGGAUCACCCAUGUGGAUGGGCGCUAGGAUAUGCGAGAGGAUGGAGAGAAGCAGAAGGAGUGGGUU [JR_SS1_Sub042] (puzzle: Same State 1)”, for which the “apparent KD of MS2 coat protein” value under setting [3] is 79.6 nM.
Consider “GGAUAACAUGAGGAUCACCCAUGUCAACAAAGUCGAGGAUAUGGGCAAUUAUAAUUAGAACCAGAAGGCGAAUAGG [Mat - Same State 1 - Mod of UCT - D44] (puzzle: Same State 1)”, for which the “apparent KD of MS2 coat protein” value reads like this: under setting [2], 55.9 nM; under setting [3], 126 nM; under setting [4], 191 nM.
For the sequence “GGAUGAUAGACAGGAUAUUGAUUGUAAUUAGGUCAAGAAGGGUCUUUGAUUUAAACGACCAGUUACAUGAGGAUCACCCAUGUU [JR_SSNG1_Sub028] (Eterna round: R96, puzzle: Same State NG 1)”, the “apparent KD of MS2 coat protein” value by setting is: (input ligand: FMN 200 uM) 82.5 nM; under setting [1], 65.9 nM; (input ligand: none) 201 nM.
In the same order, the values of “GGAUGAUUAACAGGAUAUCAUUUGUAAAUUGGUUGAGAAGGGUUAAUGAUUUACACGACCUGUUACAUGAGGAUCACCCAUGUU [SameState NG1 #2] (Eterna round: R96, puzzle: Same State NG 1)” are 41 nM, 33.8 nM and 47.2 nM.
As to “GGAUGAUUGACAGGAUAUCAUUUGUAAAUUCGAUGAGAAGGGUCGAUUACUUACACGACGUGUUACAUGAGGAUCACCCAUGUU [SameState NG1 #5] (Eterna round: R96, puzzle: Same State NG 1)”, the “apparent KD of MS2 coat protein” value reads like this: (input ligand: FMN 200 uM) 53.7 nM; under setting [1], 116 nM; (input ligand: none) 148 nM.
Taken in the same sequence, the figures for “GGCCAGAGUCAAGGAUAUGCUACCGUUUCGGUAGCAGAAGGUGAUCACAUGAGGAUCACCCAUGUUUACUGGGAGACCAUGGCC [JL SSNG1 3.69] (Eterna round: R96, puzzle: Same State NG 1)” were 219 nM, 136 nM and 112 nM.
As to “GGCCUGAGUCAAGGAUAUGCUACCGUUUCGGUAGCAGAAGGUGAUCACAUGAGGAUCACCCAUGUUUACGGGAAGACCCGCGCC (Eterna round: R96, puzzle: Same State NG 1)”, the “apparent KD of MS2 coat protein” value reads like this: (input ligand: FMN 200 uM) 1470 nM; under setting [1], 141 nM; (input ligand: none) 489 nM.
